Experimental data as given in paper PMC10358891, “The AMP deaminase of the mollusk Helix pomatia is an unexpected member of the adenosine deaminase-related growth factor (ADGF) family” (PLOS ONE, 2023).

Substrate: Nc1ncnc2c1ncn2[C@@H]1O[C@H](COP(=O)(O)O)[C@@H](O)[C@H]1O
Assay: spectrophotometric deamination assay, initial rates, Lineweaver-Burk
Type: biochemical, Helix pomatia
Details: 20 mM Tris-HCl pH 7.5, 50 mM NaCl, 25 °C (general assay buffer)
From the text: spectrophotometric deamination assay, initial rates, Lineweaver-Burk on […]

B1: HPAMPD (recombinant H. pomatia AMP deaminase) (Helix pomatia) (protein)
chain: LAVRFPTMDEYTNAREELIGSEQYLRVGGSINLNNKEKKLNQFILREKRAIIENSRLNKTQYIPAVSFFLSKSQMESTPIFKIIKDMPKGAALHLHDTASARIDWIVSNATYRDHVYMCMDQDNFVRLTVSGTGPPANSGCEWKLVETERANSGDIAAFDHWLKSNISLLTTDPLVTYPSLDKVWGRFDKHFSQLRGIIYHTPIRRDYYRQILEEFRSDNVQYVEVRSSLSGYYDLDGTVHDPEYGLQLYKAVTEEFVRTYPDFSGAKIIKSTARVKPNTDIFNDVKLSMDLYKRYPGFFLGFDLVAQEDPNTSLLGYIDSLLYPSRQNPPVSLPYYFHAGETNWQGTEVDYNLVDALLLNATRIGHGFALIKHPRVIELVKSRGVAVEVNPVSNQLLGLVKDLRNHAAAPLLAQNVPVVISSDDPGVWEALPMSHDMYVAFMDLVGEDAGLDVLKQLVWNSIQYSSMNATEKKTALKLLQAKWNNFINDSLIKWKLTNKKVI
notes: secreted from Pichia pastoris with alpha-factor signal; C-terminal His10; Endo Hf treated; 58676 Da; ORF 536 residues; homodimer predicted
B1 was tested, and the Km was 25 µM and the kcat was 170 per second.
